Biological target: Fas receptor (CD95) on mouse bone marrow cells (mouse) (UniProt P25446)
Assay: cell-based or functional assay

Chain of streptavidin-FasL chimeric protein (P22629 37-163, change not shown): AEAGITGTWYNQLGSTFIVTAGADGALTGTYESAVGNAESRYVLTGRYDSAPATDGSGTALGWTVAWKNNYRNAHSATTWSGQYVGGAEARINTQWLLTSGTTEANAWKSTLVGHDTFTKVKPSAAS
Chain of Fas receptor (CD95) on mouse bone marrow cells (mouse) (P25446 22-327): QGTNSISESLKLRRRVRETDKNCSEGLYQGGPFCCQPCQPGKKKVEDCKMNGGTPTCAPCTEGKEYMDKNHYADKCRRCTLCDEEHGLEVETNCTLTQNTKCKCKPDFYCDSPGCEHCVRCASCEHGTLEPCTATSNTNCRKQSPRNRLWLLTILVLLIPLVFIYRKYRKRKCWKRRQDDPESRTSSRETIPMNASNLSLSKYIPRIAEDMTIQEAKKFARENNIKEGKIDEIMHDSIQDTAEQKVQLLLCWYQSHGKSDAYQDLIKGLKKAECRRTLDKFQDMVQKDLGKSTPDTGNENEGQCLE

streptavidin-FasL chimeric protein (from UniProt P22629 37-163) (ligand)
apoptotic death of wBMC after 24 hours with FasL protein (annexin-V, 7AAD) (% of the cells): 40 | clonogenic activity of STR cells at 500 ng/ml FasL protein: 26 % increase | clonogenic activity of STR cells with FasL and inhibition of caspase-3 (DEVD): 75 % increase | clonogenic activity of lin- BMC (CFU assay) (% stimulation at ~500 ng/ml FasL): 45
